# ± gives the uncertainty stated by the source.
# B1: Neutrophil cytosol factor 2, residues 456 to 514; numbered along this chain, P19878 (parent)
# chain: LKKGSQVEALFSYEATQPEDLEFQEGDIILVLSKVNEEWLEGECKGKVGIFPKVFVEDC
# Variants of: B1
# Experiment: abundance fitness (aPCA) (normalised: wild type 0, dead -1); higher = more abundant; growth selection in yeast, the domain comes from the species named
# Conditions: Homo sapiens
row,Variant,abundance fitness
1,E22L,-0.256 ± 0.13
2,E22K,-0.473 ± 0.37
3,E22A,0.103 ± 0.11
4,F55S,-0.753 ± 0.16
5,F55G,-0.486 ± 0.12
6,C59P,0.078 ± 0.14
7,C59G,-0.64 ± 0.22
8,V7I,-0.805 ± 0.4
9,P18R,-0.163 ± 0.1
10,P18N,-0.074 ± 0.11
11,P18I,-0.651 ± 0.22
12,L40M,-0.042 ± 0.19
13,L40Y,0.528 ± 0.077
14,L40F,-0.548 ± 0.14
15,L40P,-0.02 ± 0.23
16,L40D,-0.544 ± 0.17
17,V31Y,-0.479 ± 0.13
18,V31L,0.041 ± 0.11
19,V31K,-0.621 ± 0.48
20,E57L,-0.505 ± 0.13
21,E57Q,0.541 ± 0.16
22,E25T,0.035 ± 0.12
23,E25D,-0.9 ± 0.33
24,E25P,-0.89 ± 0.27

row,Variant,abundance fitness
1,L10V,-0.609 ± 0.2
2,S12Y,-0.841 ± 0.16
3,S12G,-0.377 ± 0.15
4,S12H,-0.44 ± 0.16
5,S12N,-0.206 ± 0.1
6,S12L,-0.086 ± 0.1
7,S12W,-0.557 ± 0.28
8,D58L,-0.493 ± 0.15
9,D58P,0.214 ± 0.17
10,V54M,0.378 ± 0.12
11,V54K,0.663 ± 0.15
12,V54H,0.425 ± 0.1
13,K2L,-0.46 ± 0.2
14,K2H,0.249 ± 0.3
15,K2A,0.146 ± 0.19
16,K2R,0.002 ± 0.13
17,L32T,0.325 ± 0.088
18,L32S,-0.069 ± 0.079
19,L32D,-0.054 ± 0.095
20,L32N,0.304 ± 0.095
21,A15T,-1.03 ± 0.37
22,A15N,-0.853 ± 0.27
23,A15P,-0.005 ± 0.15
24,A15H,-0.954 ± 0.27

row,Variant,abundance fitness
1,I50K,0.108 ± 0.18
2,I50C,-0.4 ± 0.15
3,I50R,-0.125 ± 0.11
4,I50V,-0.298 ± 0.12
5,I50P,0.096 ± 0.24
6,F11A,0.567 ± 0.18
7,F11N,0.029 ± 0.28
8,F11E,-0.572 ± 0.41
9,D20Q,0.093 ± 0.14
10,D20E,0.757 ± 0.14
11,D20C,0.014 ± 0.085
12,G26V,-0.407 ± 0.12
13,G26L,-0.339 ± 0.12
14,G26I,-0.807 ± 0.23
15,V56Y,-0.574 ± 0.14
16,V56T,-0.457 ± 0.14
17,K34C,-0.242 ± 0.12
18,K34D,-0.026 ± 0.11
19,K34Q,-0.215 ± 0.27
20,K34M,-0.326 ± 0.2
21,L30G,-0.2 ± 0.097
22,V35L,-0.096 ± 0.089
23,V35H,-0.806 ± 0.23
24,G49L,-0.42 ± 0.12

row,Variant,abundance fitness
1,G49E,-0.63 ± 0.38
2,S33Q,-0.111 ± 0.27
3,S33K,0.213 ± 0.17
4,S33G,0.378 ± 0.069
5,S33F,-0.291 ± 0.13
6,I29V,-0.795 ± 0.17
7,E43S,0.025 ± 0.076
8,E43A,-0.035 ± 0.17
9,E43K,-0.235 ± 0.24
10,E43H,-0.314 ± 0.16
11,E38P,-0.496 ± 0.19
12,E38C,-0.702 ± 0.15
13,E38N,-0.131 ± 0.12
14,E38G,-0.207 ± 0.098
15,K47C,-0.658 ± 0.14
16,K47M,-0.924 ± 0.32
17,K47N,-0.271 ± 0.1
18,K47A,-1.04 ± 0.27
19,N36W,-0.712 ± 0.27
20,N36P,-1.03 ± 0.29
21,D27V,-0.969 ± 0.24
22,D27F,-0.493 ± 0.14
23,D27R,-0.323 ± 0.11
24,D27A,-0.142 ± 0.14

row,Variant,abundance fitness
1,E19C,-0.112 ± 0.087
2,E19Q,-0.216 ± 0.27
3,E19D,-0.501 ± 0.2
4,E19K,-0.723 ± 0.4
5,K3F,-0.153 ± 0.28
6,K3T,-0.094 ± 0.21
7,S5R,-0.116 ± 0.14
8,L21V,-0.225 ± 0.11
9,L21H,-0.483 ± 0.19
10,L21N,-0.538 ± 0.17
11,Q6E,-0.158 ± 0.18
12,Q6V,0.538 ± 0.12
13,Q6S,-0.667 ± 0.27
14,A9R,-0.688 ± 0.23
15,A9N,-0.537 ± 0.42
16,A9C,0.167 ± 0.23
17,A9W,-0.432 ± 0.29
18,A9G,-0.439 ± 0.2
19,W39H,-1.03 ± 0.24
20,W39F,-0.49 ± 0.11
21,W39Y,-0.321 ± 0.1
22,E37M,-0.506 ± 0.22
23,Q24W,-0.14 ± 0.35
24,Q24F,-0.224 ± 0.12

row,Variant,abundance fitness
1,Q24N,-0.002 ± 0.11
2,Q24C,-0.197 ± 0.1
3,F51N,-0.584 ± 0.13
4,F51A,-0.63 ± 0.15
5,F51H,-0.18 ± 0.15
6,F51I,-0.506 ± 0.14
7,P52Y,-0.738 ± 0.21
8,P52G,-0.215 ± 0.11
9,P52E,-0.642 ± 0.37
10,P52C,-0.51 ± 0.14
11,V48L,-0.706 ± 0.15
12,V48I,-0.138 ± 0.1
13,E14G,-0.233 ± 0.11
14,Q17L,-0.266 ± 0.11
15,Q17M,-0.27 ± 0.36
16,I28R,0.338 ± 0.075
17,I28Q,0.146 ± 0.2
18,I28C,-0.546 ± 0.11
19,K53A,-0.246 ± 0.13
20,K53Y,-0.722 ± 0.18
21,K53E,-0.353 ± 0.24
22,K53H,-0.928 ± 0.24
23,K53P,-0.716 ± 0.29
24,K53M,-0.549 ± 0.39

row,Variant,abundance fitness
1,K53S,-0.39 ± 0.12
2,K53F,-0.857 ± 0.25
3,Y13M,0.207 ± 0.21
4,Y13T,-0.644 ± 0.14
5,G46A,-0.313 ± 0.15
6,G46M,-0.599 ± 0.34
7,G46E,-0.189 ± 0.28
8,C44N,-0.924 ± 0.2
9,C44H,-0.806 ± 0.19
10,C44Y,-0.478 ± 0.11
11,C44D,-0.557 ± 0.15
12,T16F,-0.609 ± 0.2
13,T16M,-0.164 ± 0.4
14,T16W,-0.651 ± 0.37
15,T16C,-0.426 ± 0.14
16,F23M,-0.098 ± 0.21
17,F23H,-0.117 ± 0.15
18,F23S,-0.655 ± 0.13
19,F23W,-0.889 ± 0.37
20,F23P,-0.848 ± 0.35
21,K45T,-0.562 ± 0.19
22,K45D,0.065 ± 0.12
23,K45E,-0.905 ± 0.49

# From the Human Domainome abundance scans (Beltran et al. 2025)
